{
  "source": "patent US20200399344A1",
  "key": {"[1]": {"molecular_target": "mCD28 expressed on CHO-K1/mCD28 cells (mouse) (UniProt P31041)", "sequence (P31041 20-218)": "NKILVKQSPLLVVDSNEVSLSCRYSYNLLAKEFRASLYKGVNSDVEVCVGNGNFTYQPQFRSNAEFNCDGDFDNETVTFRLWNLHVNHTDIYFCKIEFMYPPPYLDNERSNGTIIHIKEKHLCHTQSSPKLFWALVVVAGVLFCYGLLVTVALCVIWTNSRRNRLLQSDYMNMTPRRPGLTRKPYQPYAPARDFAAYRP", "test": "flow cytometry, isotype control stain (sample Chok1-IsotypeCD28); unstained cells 286"}, "[2]": {"molecular_target": "hCD28 expressed on CHO-K1/hCD28 cells (human) (UniProt P10747)", "sequence (P10747 19-220)": "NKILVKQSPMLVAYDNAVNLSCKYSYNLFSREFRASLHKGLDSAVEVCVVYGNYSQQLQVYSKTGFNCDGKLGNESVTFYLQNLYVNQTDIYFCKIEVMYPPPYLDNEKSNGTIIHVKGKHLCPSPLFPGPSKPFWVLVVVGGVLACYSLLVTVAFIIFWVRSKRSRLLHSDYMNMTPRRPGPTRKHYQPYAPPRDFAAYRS", "test": "flow cytometry, isotype control stain of CHO-K1/hCD28 cells (table row 1); unstained cells 130"}, "[3]": {"molecular_target": "m2B4 expressed on CHO-K1/m2B4 cells (mouse) (UniProt Q07763)", "sequence (Q07763 20-397)": "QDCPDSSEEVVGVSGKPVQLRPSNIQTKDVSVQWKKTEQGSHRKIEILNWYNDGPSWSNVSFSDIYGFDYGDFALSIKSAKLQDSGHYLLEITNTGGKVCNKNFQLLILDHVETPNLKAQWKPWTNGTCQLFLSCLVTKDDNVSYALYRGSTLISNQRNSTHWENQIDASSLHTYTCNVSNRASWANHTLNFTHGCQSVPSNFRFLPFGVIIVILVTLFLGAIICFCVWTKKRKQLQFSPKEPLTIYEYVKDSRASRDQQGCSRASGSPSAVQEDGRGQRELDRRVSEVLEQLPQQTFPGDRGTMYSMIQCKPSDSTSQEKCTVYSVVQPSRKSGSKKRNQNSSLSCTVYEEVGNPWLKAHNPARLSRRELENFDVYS", "test": "flow cytometry, isotype control stain of Cho-K1-NFkB-Luc-m2B4 clone C2; unstained cells 2.00"}, "[4]": {"molecular_target": "hCD2 expressed on CHO-K1/hCD2 cells (human) (UniProt P06729)", "sequence (P06729 25-351)": "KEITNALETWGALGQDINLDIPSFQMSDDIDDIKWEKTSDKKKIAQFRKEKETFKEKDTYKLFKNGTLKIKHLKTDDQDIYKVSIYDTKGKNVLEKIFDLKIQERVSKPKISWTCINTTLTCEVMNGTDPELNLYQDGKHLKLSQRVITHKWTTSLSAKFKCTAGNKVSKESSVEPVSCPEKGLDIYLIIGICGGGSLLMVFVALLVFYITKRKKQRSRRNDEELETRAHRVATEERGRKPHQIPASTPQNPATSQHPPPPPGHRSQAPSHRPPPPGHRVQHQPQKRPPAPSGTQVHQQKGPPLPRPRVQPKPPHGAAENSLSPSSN", "test": "flow cytometry, isotype control stain of Cho-K1-Luc hCD2 clone 4; unstained cells 362"}},
  "data": [
    {"substance": "isotype control antibody", "values": [
      {"measurement": "Geometric Mean : PE-A", "setting": "[1]", "result": 678},
      {"measurement": "Geometric Mean : PE-A", "setting": "[2]", "result": 589},
      {"measurement": "Geometric Mean : PE-A", "setting": "[3]", "result": 178},
      {"measurement": "Geometric Mean : PE-A", "setting": "[4]", "result": 1760}
    ]}
  ]
}
